Test results: US20220073613A1 (XILIO DEVELOPMENT, published 2022)
Values belong to the binder of their own block, whether it stands above or below them.

Legend:
[1] = target: T1, muCTLA4hsIgG protein (Abcam) (murine, UniProt P09793 36-161, limits assumed); assay: low density antigen binding ELISA, muCTLA4hsIgG coated; average of three experiments
T1 construct: Bought; also called murine CTLA4; not shown: human IgG part (hsIgG)

[2] = target: T1, muCTLA4hsIgG protein (Abcam); assay: low density antigen binding ELISA, 3 ng muCTLA4hsIgG per well
[3] = target: T2, murine CTLA4-Fc (R&D Systems) (murine, UniProt P09793 36-162); assay: ELISA, plate-coated murine CTLA4-Fc, anti-muKappa-HRP; ratio of EC50s
T2 construct: Bought; also called muCTLA4-hsIgG (R&D Systems); not shown: human IgG Fc part (hsIgG)

[4] = target: T3, human CTLA4-Fc (R&D Systems, #7268-CT) (human, UniProt P16410 36-162); assay: CTLA4 ELISA (luminescence) after culture of the antibody in colon tumor conditioned media
T3 construct: Bought; not shown: Fc part
T3 sequence (P16410 36-162 limits assumed): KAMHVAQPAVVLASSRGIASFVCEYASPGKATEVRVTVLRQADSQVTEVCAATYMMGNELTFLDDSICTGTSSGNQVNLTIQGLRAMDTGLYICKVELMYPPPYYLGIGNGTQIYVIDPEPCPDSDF

[5] = target: T3, human CTLA4-Fc (R&D Systems, #7268-CT); assay: ELISA, human CTLA4-Fc coated; protease -
[6] = target: T3, human CTLA4-Fc (R&D Systems, #7268-CT); assay: ELISA, human CTLA4-Fc coated; protease +
[7] = target: T4, CTLA4 coated on an MSD plate (Homo sapiens (Human), UniProt P16410 36-161); assay: binding to a CTLA4-coated MSD plate; antibody from plasma of MB49-bearing B-hCTLA4 mice 4 days after 10 mg/kg, IgG quantified by ELISA, 3-fold dilutions (Example 16)
T4 construct: not shown: The carrier of the coated recombinant CTLA4; It is probably the Fc of a CTLA4-Fc, as in the other ELISAs
T4 sequence (P16410 36-161 limits assumed): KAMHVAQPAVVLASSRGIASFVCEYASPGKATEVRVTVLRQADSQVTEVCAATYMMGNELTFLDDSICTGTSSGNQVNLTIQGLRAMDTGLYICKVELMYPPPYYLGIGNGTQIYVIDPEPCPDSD

[8] = target: CTLA4 on CTLA4 expressing Jurkat cells (UniProt P16410 36-223, limits assumed); assay: cell-based or functional assay
Chain of CTLA4 on CTLA4 expressing Jurkat cells (P16410 36-223 limits assumed): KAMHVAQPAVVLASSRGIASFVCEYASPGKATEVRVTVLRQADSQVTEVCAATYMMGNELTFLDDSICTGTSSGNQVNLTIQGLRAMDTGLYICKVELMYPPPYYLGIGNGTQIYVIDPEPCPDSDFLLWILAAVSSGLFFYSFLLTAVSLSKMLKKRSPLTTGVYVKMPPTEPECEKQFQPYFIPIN

[9] = target: T3, human CTLA4-Fc (R&D Systems, #7268-CT); assay: ELISA, human CTLA4-Fc coated; protease -; remark: listed apart in the source
[10] = target: T3, human CTLA4-Fc (R&D Systems, #7268-CT); assay: CTLA4 ELISA (luminescence) after culture of the antibody in RPMI as control
[11] = target: T3, human CTLA4-Fc (R&D Systems, #7268-CT); assay: low density antigen binding ELISA, human CTLA4-Fc coated; no protease
[12] = target: T3, human CTLA4-Fc (R&D Systems, #7268-CT); assay: low density antigen binding ELISA, human CTLA4-Fc coated; control not exposed to protease

- EC50 [1]: 48400 pM
- fold lower binding than parental anti-CTLA4 antibody [2]: ~156 fold
- fold lower binding than parental anti-CTLA4 antibody (9D9) [3]: 90 fold
B1: activatable masked anti-CTLA4 antibody (masked 9D9) (antibody, mouse IgG2a, kappa)
light: ACNLIVEGHCGGSVPLSLYSGGGDIVMTQTTLSLPVSLGDQASISCRSSQSIVHSNGNTYLEWYLQKPGQSPKLLIYKVSNRFSGVPDRFSGSGSGTDFTLKISRVEAEDLGVYYCFQGSHVPYTFGGGTKLEIKRADAAPTVSIFPPSSEQLTSGGASVVCFLNNFYPKDINVKWKIDGSERQNGVLNSWTDQDSKDSTYSMSSTLTLTKDEYERHNSYTCEATHKTSTSPIVKSFNRNEC
heavy: EAKLQESGPVLVKPGASVKMSCKASGYTFTDYYMNWVKQSHGKSLEWIGVINPYNGDTSYNQKFKGKATLTVDKSSSTAYMELNSLTSEDSAVYYCARYYGSWFAYWGQGTLITVSSAKTTAPSVYPLAPVCGDTTGSSVTLGCLVKGYFPEPVTLTWNSGSLSSGVHTFPAVLQSDLYTLSSSVTVTSSTWPSQSITCNVAHPASSTKVDKKIEPRGPTIKPCPPCKCPAPNLLGGPSVFIFPPKIKDVLMISLSPIVTCVVVDVSEDDPDVQISWFVNNVEVHTAQTQTHREDYNSTLRVVSALPIQHQDWMSGKEFKCKVNNKDLPAPIERTISKPKGSVRAPQVYVLPPPEEEMTKKQVTLTCMVTDFMPEDIYVEWTNNGKTELNYKNTEPVLDSDGSYFMYSKLRVEKKNWVERNSYSCSVVHEGLHNHHTTKSFSRTPGK
notes: Murine IgG2a; also called masked anti-CTLA4 antibody 2

- EC50 (read off the curve) [4]: ~400 pM
- EC50 [5]: 690 pM
- EC50 [6]: 390 pM
- EC50 (read off the curve) [7]: ~7 ng/mL
- EC50 of FcγRIIIa (ADCC) reporter activation, after exposure to protease [8]: 0.0049 ng/mL
- EC50 of FcγRIIIa (ADCC) reporter activation, without protease [8]: 0.008 ng/mL
- EC50 [9]: 390 pM
- EC50 (read off the curve) [10]: ~600 pM
- EC50 [11]: 690 pM
- EC50 [12]: 690 pM
B2: Antibody 2-6 (antibody, human IgG1, kappa)
light: EIVLTQSPDFQSVTPKEKVTITCSANSALSYMYWYQQKPDQSPKLWVHGTSNLASGVPSRFSGSGSGTDFTLTINSLEAEDAATYYCHHWSNTQWTFGGGTKVEIKRTVAAPSVFIFPPSDEQLKSGTASVVCLLNNFYPREAKVQWKVDNALQSGNSQESVTEQDSKDSTYSLSSTLTLSKADYEKHKVYACEVTHQGLSSPVTKSFNRGEC
heavy: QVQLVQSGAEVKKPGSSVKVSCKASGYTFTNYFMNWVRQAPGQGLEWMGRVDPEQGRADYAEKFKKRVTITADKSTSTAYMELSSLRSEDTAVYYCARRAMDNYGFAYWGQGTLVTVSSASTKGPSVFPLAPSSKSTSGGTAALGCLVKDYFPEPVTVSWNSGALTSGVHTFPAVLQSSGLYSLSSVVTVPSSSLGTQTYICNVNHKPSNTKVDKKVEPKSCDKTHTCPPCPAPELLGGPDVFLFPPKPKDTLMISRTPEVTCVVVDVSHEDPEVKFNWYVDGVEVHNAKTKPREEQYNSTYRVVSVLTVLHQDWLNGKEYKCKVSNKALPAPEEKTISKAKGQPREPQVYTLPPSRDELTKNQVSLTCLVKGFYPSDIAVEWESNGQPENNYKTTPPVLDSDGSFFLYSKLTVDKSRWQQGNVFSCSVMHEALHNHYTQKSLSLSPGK
notes: Unmasked version of Antibody 2 with S239D and I332E in the Fc region; also called unmasked parental antibody; parental unmasked Antibody 2-6
